Experimental data published in patent US20150335719A1, “Intravitreal Injection of a Chimeric Phage Endolysin Ply187; Protection from Staphylococcus aureus Endophthalmitis” (priority 2014, published 2015).

Legend:
[1] = system: S. aureus strains/isolates RN6390, USA 300, R2932, R2952 and R3000; assay: Turbidity reduction assay; assay type: cell-based, Staphylococcus aureus; conditions: at MIC, measured every 5 min up to 1 h
Procedure: Error bars represent SEM for three independent experiments performed in triplicates. […] Cells surviving at half (½) of the MIC value were used as an inoculum for each subsequent round of exposure. The change in susceptibility is recorded and presented as fold change resistance from day 1 to 10 of exposure and also after 5 days of growth (without any selection pressure) following the 10th day (represented as 10+5). The data represent means±SEM of two independent experiments performed in triplicate.
To verify and quantify the lytic activity against live S. aureus, we have tested Ply187AN-KSH3b in the Turbidity Reduction Assay. The turbidity assay measures the drop in optical density (OD) resulting from lysis of the target bacteria with the phage endolysin-derived protein. Turbidity reduction assays by chimeric Ply187AN-KSH3b were performed in a 96 well plate as described previously by Becker et al. (2009a, 2009b, supra). Briefly, S. aureus strains/isolates RN6390, USA 300, and clinical isolates R2932, R2952 and R3000 were grown to logarithmic phase (OD600 0.4-0.6) at 37° C. in tryptic Soy broth (TSB). The culture was harvested by centrifugation and the pellet was resuspended in assay buffer (400 mM NaCl, 20 mM Tris HCl, 1% glycerol, pH 7.5). […] The reduction in the turbidity was measured after every 5 min up to 1 h using a micro plate reader. […]

[2] = system: S. aureus RN6390 endophthalmitis; assay: Mouse S. aureus endophthalmitis: histology (H&E) and TUNEL staining of retina; assay type: in vivo, C57BL/6 mice
Procedure: FIGS. 3A-3E show the effects of intravitreal injection of chimeric Ply187AN-KSH3b on the severity of S. aureus endophthalmitis. The eyes (n=10) of C57BL/6 mice were infected with S. aureus strain RN6390 and following either 6 h or 12 h post-infection, Ply187AN-KSH3b or EB (EB C) was administered by intravitreal injection. FIG. 3A depicts individual eyes assigned clinical scores (range 0 to 4; black dots represent an eye) and presented as mean clinical scores (bar with SEM). […] FIG. 3E depicts the total number of dead cells in the retinal sections that were counted and are presented as mean±SD of the TUNEL positive cells. A student's t test (**, p<0.005) was used for the statistical analysis and comparisons were made between the S. aureus (SA) control, SA+EBC, and SA+Ply187AN-KSH3b-treated group.
The embedding, sectioning, and Hematoxylin and Eosin (H & E) staining was performed by Excalibur Pathology Inc. (Oklahoma City, Okla.). For immunostaining, the eyes were fixed in Tissue-Tek® O.C.T. (Sakura, Torrance, Calif.) and five-micrometer-thick sagittal sections were collected from each eye and mounted onto microscope slides. TUNEL staining was performed on retinal cryo-sections using ApopTag® Fluorescein In situ Apoptosis Detection Kit as per manufacturer's instruction (Millipore, Billerica, Mass.).

[3] = system: retinal cells; assay: Cytotoxicity analysis in vivo (retinal cell death); conditions: data not shown
[4] = intravitreal injection alone

B1: Ply187AN-KSH3b: staphylococcal peptidoglycan hydrolase fusion protein: endopeptidase domain of prophage endolysin Ply187 plus SH3b cell wall-binding domain of phage K endolysin LysK (SEQ ID NO:1) (protein)
chain: MALPKTGKPTAKQVVDWAINLIGSGVDVDGYYGRQCWDLPNYIFNRYWNFKTPGNARDMAWYRYPEGFKVFRNTSDFVPKPGDIAVWTGGNYNWNTWGHTGIVVGPSTKSYFYSVDQNWNNSNSYVGSPAAKIKHSYFGVTHFVRPAYKAEPKPTPPLESTPATRPVTGSWKKNQYGTWYKPENATFVNGNQPIVTRIGSPFLNAPVGGNLPAGATIVYDEVCIQAGHIWIGYNAYNGNRVYCPVRTCQGVPPNQIPGVAWGVFKVEHHHHHH
modifications: Chemically Synthesized Fusion Protein
[1]
  reduction in the turbidity of suspension culture: time-dependent reduction in the turbidity
[2]; 1 μg/eye intravitreal
  histological analysis (H&E) of retina: preserved the integrity of the retina
[2]; retinal sections
  TUNEL+ cells (retinal cell death), average: 17.66 TUNEL^+ cells/eye
[3]
  retinal cell death in vivo: does not cause retinal cell death
[4]
  inflammatory response in the eye: does not evoke an inflammatory response
